Laboratory results reported in patent US20190225662A1.

Legend:
[1] = molecular target: GABAB Receptor from rat whole-brain synaptosome extracts (rat); experiment: affinity pull-down with sAPPα-Fc bait on rat synaptosome extracts, LCLC-MS/MS, three repeats
[2] = molecular target: GABABR1a on mouse hippocampal neurons (cultures and slices) (mouse) (UniProt Q9WV18); experiment: cell-based or functional assay
GABABR1a on mouse hippocampal neurons (cultures and slices) (mouse), sequence (Q9WV18 20-960): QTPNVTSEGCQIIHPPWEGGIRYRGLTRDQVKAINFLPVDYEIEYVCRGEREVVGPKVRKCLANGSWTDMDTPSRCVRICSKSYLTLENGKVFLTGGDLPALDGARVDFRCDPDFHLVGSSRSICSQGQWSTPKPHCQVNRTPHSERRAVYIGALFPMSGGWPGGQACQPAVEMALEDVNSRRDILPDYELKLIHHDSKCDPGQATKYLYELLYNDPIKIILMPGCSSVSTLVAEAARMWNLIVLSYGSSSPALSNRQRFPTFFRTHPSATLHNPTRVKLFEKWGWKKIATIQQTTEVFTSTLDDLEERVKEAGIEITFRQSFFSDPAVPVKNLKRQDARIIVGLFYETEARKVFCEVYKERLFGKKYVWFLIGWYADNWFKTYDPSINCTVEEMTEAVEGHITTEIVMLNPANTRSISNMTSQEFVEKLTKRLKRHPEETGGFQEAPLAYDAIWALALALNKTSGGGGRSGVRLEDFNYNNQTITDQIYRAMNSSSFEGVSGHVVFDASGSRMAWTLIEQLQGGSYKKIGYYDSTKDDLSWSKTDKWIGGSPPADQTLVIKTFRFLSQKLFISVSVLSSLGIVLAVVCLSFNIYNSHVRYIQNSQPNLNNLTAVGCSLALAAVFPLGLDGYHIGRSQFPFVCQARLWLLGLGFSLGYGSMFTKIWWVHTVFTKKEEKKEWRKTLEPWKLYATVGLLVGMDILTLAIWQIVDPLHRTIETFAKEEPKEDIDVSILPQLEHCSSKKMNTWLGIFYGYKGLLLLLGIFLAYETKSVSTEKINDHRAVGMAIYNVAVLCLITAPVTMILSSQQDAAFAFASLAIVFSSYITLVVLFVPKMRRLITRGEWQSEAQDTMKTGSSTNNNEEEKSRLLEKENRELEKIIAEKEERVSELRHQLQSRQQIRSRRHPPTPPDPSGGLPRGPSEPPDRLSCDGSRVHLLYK

GABAB Receptor from rat whole-brain synaptosome extracts (rat), sequence (Q9Z0U4 20-960, chain 1 of 2): as the sequence (Q9WV18 20-960) above, with V5A, D108E, I124V, I702V, A850T, I902L counted along it
GABAB Receptor from rat whole-brain synaptosome extracts (rat), sequence (O88871 41-940, chain 2 of 2, further chain): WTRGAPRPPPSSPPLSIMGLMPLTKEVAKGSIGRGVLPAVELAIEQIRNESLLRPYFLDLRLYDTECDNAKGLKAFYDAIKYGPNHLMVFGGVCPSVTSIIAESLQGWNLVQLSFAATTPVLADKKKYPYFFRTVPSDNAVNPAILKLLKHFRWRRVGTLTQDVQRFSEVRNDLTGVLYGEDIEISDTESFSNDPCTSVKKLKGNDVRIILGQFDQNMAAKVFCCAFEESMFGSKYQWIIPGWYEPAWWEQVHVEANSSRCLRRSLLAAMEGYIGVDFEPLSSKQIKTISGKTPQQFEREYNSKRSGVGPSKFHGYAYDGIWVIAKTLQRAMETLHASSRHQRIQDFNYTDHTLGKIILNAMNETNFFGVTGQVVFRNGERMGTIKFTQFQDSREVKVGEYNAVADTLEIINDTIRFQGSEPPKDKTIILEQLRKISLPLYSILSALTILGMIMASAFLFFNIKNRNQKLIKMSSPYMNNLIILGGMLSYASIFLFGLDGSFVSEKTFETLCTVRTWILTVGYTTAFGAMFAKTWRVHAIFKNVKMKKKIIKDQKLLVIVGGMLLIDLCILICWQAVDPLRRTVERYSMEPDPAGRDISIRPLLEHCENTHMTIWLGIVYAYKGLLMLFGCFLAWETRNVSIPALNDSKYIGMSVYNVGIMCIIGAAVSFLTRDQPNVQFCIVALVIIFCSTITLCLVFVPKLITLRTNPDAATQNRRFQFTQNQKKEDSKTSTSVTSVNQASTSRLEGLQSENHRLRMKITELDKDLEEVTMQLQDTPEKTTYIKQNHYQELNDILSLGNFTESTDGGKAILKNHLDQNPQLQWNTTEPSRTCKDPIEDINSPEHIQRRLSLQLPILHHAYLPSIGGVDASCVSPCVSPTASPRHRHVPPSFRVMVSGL

**Q.** “sAPPα-Fc (soluble amyloid precursor protein α fused to human Fc) (from UniProt P12023 18-612) (Fc fusion)” was tested. Which summed peptide count [1] did it give?
**A.** Its summed peptide count is 35.

**Q.** And the summed spectra count [1]?
**A.** Its summed spectra count is 22.

**Q.** With “sAPLP1 (without Fc) (from UniProt Q03157 38-583) (ligand)” as the substance, how does the reduction in mIPSC frequency, 250 nM [2] read?
**A.** The reduction in mIPSC frequency, 250 nM was 17%.
